Assay results published in PMC10767048 (Nature Communications, 2024).

Molecular target: GPC trimer Enc nanoparticle (Lassa GPC trimer-SpyTag coupled to encapsulin-SpyCatcher) (Lassa virus, Mouse/Sierra …, stabilised)
Test: BLI
Conditions: both partners purified

B1: Fab of human LASV neutralizing antibody 37.7H (Fab, V domains shown)
VH: EVQLVQSGGGLVKAGGSLRLSCAASGFTFSTYSMNWIRQAPGKGLEWVASISSRSGSHINYVDSVKGRFTISRDNARDLLYLQMNSLRVDDSALYYCARDRRSGTSPLPLDVWGQGTTVTVFS
VL: QSALTQPASVSGSPGQSITISCTGTGSDIGGYNFVSWYQQYPGKAPKLIIYEVRIRASGVSNRFSGSKSGNTASLTISGLQAEDEADYYCNSYSIHSPWVFGGGTKLTVL
  Kd: < 1 pM
  koff: < 1e-07 s⁻¹
  kon: 81100 M⁻¹ s⁻¹
